Test results published in the supplement of paper PMC10567573.

B1: IQUB (parent)
chain: KIREKEEWIKLDYHRRHNPKTNED

Variants of: B1
Assay: protein stability index of a GFP-peptide fusion (GPS, HEK-293T) (PSI 1-6); higher = more stable
Settings: c terminus: a fixed tail appended
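Note: lentivirally expressed fusions sorted by FACS into six bins by GFP to DsRed ratio, PSI derived from sequencing read proportions per bin multiplied by bin number.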

Variant	protein stability index
L11C	4.52
L11D	4.93
L11E	4.32
L11F	4.33
L11G	4.64
L11H	4.66
L11I	3.78
L11K	4.71
L11M	4.71
L11N	5.15
L11P	4.78
L11Q	5.37
L11R	5.29
L11S	5.23
L11T	5.2
L11V	4.55
L11W	4.13
L11Y	4.81
D12A	4.07
D12C	3.93
D12E	4.27

Variant	protein stability index
D12F	4.01
D12G	4.51
D12H	4.41
D12I	3.28
D12K	4.54
D12L	3.79
D12M	3.7
D12N	3.92
D12P	4.41
D12Q	4.55
D12R	4.21
D12S	3.59
D12T	3.79
D12V	3.65
D12W	3.79
D12Y	3.62
Y13A	4.36
Y13C	4.33
Y13D	5.04
Y13E	5.18
Y13F	4.51

Variant	protein stability index
Y13G	4.99
Y13H	4.87
Y13I	3.95
Y13K	5.3
Y13L	4.8
Y13M	4.76
Y13N	5.41
Y13P	4.51
Y13Q	5.04
Y13R	5.28
Y13S	5.11
Y13T	4.49
Y13V	4.64
Y13W	4.18
H14A	4.8
H14C	4.46
H14D	5.35
H14E	3.72
H14F	4.34
H14G	4.88
H14I	4.58

Variant	protein stability index
H14K	3.87
H14L	4.1
H14N	4.89
H14P	4.51
H14Q	5.02
H14R	4.58
H14S	4.61
H14T	4.5
H14V	4.24
H14W	3.73
H14Y	4.41
R15A	5.05
R15C	3.89
R15D	5.33
R15E	4.46
R15F	4.23
R15G	4.83
R15H	4.36
R15I	4.29
R15K	4.64
